Common to all, as to experiment: ELISA
(ELISA stands for enzyme-linked immunosorbent assay.)

The target in assay [1] is BSA-conjugated Aβ heptapeptide LVFFAEC.
In assay [2] the target is BSA-conjugated Aβ heptapeptide AEFRHDC.
Assay [3] has as its target BSA-conjugated Aβ heptapeptide VFFAEDC.
Assay [4] has as its target BSA-conjugated Aβ heptapeptide FFAEDVC.

With 4G8 (antibody), in assay [1], the OD ratio 17-22/BSA is 23 and the Peptide-ratio 17-22/2-7 stood at 23. The OD ratio 2-7/BSA in assay [2] turned out to be 1. Also, in assay [3], the OD ratio 18-23/BSA was determined as 20 and the Peptide-ratio 18-23/2-7 amounted to 20. In addition, in assay [4], the OD ratio 19-24/BSA turned out to be 1 and the Peptide-ratio 19-24/2-7 turned out to be 1.
Take 6E10 (antibody): in assay [1], the OD ratio 17-22/BSA was determined as 1 and the Peptide-ratio 17-22/2-7 stood at 0.06. Moreover, in assay [2], the OD ratio 2-7/BSA is 18. In addition, in assay [3], the OD ratio 18-23/BSA worked out at 1 and the Peptide-ratio 18-23/2-7 is 0.06. Also, in assay [4], the OD ratio 19-24/BSA turned out to be 1 and the Peptide-ratio 19-24/2-7 is 0.06.
AMY-33 (antibody): in assay [1], the OD ratio 17-22/BSA was found to be 2 and the Peptide-ratio 17-22/2-7 came out at 0.13. Also, the OD ratio 2-7/BSA in assay [2] was 16. In assay [3], the OD ratio 18-23/BSA came to 1 and the Peptide-ratio 18-23/2-7 worked out at 0.06. In assay [4], the OD ratio 19-24/BSA was 3 and the Peptide-ratio 19-24/2-7 came out at 0.19.

(Values after patent publication US20100172907A1.)
